Assay results: paper PMC10319729 (2023)

T1: LGR5ΔCT (human LGR5 without the cytoplasmic C-terminal tail) on HEK293 cells (human, UniProt O75473 22-907)
T1 chain: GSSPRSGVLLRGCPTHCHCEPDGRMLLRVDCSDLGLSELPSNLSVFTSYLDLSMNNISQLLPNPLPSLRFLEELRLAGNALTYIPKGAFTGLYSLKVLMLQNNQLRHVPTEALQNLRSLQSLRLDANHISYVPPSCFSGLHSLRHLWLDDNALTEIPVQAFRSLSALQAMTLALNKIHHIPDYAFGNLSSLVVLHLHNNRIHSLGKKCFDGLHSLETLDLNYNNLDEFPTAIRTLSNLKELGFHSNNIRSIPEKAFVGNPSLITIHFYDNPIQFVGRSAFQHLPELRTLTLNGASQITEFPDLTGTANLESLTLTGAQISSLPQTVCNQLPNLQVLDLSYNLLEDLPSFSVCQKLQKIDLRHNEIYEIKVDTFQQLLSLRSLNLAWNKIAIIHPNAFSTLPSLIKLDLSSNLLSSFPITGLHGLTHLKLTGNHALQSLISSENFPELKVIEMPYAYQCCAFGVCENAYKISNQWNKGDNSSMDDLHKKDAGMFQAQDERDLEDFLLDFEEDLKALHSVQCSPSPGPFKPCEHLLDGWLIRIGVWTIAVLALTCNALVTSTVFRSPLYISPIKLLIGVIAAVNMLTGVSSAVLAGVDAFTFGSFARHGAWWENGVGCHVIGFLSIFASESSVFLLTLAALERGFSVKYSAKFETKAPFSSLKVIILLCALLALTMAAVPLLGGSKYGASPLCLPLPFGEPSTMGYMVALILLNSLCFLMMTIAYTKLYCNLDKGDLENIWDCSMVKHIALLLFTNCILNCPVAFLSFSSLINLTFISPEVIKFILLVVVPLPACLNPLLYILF


Key:
[1] = molecular target: T1, LGR5ΔCT (human LGR5 without the …)
[2] = molecular target: LGR4 (HA-LGR4) over-expressed on HEK293 cells (UniProt Q9BXB1 25-951)

Kd [1] | Kd [2] | Binder
2.3 nM |  | R2Fu-mFc (RSPO2 furin domain fused to monomeric human IgG4-Fc, monovalent) (Fc fusion) NPICKGCLSCSKDNGCSRCQQKLFFFLRREGMRQYGECLHSCPSGYYGHRAPDMNRCARCRIENCDSCFSKDFCTKCKVGFYLHRGRCFDECPDGFAPLEETMECVE
1.8 nM | 9 nM | R2Fu-bFc (RSPO2 furin domain fused to wild-type IgG1-Fc, bivalent) (Fc fusion) NPICKGCLSCSKDNGCSRCQQKLFFFLRREGMRQYGECLHSCPSGYYGHRAPDMNRCARCRIENCDSCFSKDFCTKCKVGFYLHRGRCFDECPDGFAPLEETMECVE
